# Source: publication PMC8294330
# Legend:
# [1] = target: PNPase S1x4;Hfq R681A;Q682A;R684A;R686A (Escherichia coli;Escherichia coli) (UniProt P05055+P0A6X3); experiment: EMSA; conditions: EMSA: 0.4 uM RNA, PNPase trimer 1:1 and 3:1 over RNA, 20 mM Tris pH 7.5, 100 mM NaCl, 1 mM MgCl2, 1 mM DTT, 30 C 20 min; native PAA gel with 10% glycerol …
# [2] = target: PNPase WT;Hfq (Escherichia coli;Escherichia coli) (UniProt P05055+P0A6X3); experiment: cryo-EM; conditions: EMSA: 0.4 uM RNA, PNPase trimer 1:1 and 3:1 over RNA, 20 mM Tris pH 7.5, 100 mM NaCl, 1 mM MgCl2, 1 mM DTT, 30 C 20 min; native PAA gel with 10% glycerol …
sequence,measurement,setting,value
GCGAUCAGGAAGACCCUCGCGGAGAACCUGAAAGCACGACAUUGCUCACAUUGCUUCCAGUAUUACUUAGCCAGCCGGGUGCUGGCUUUUUUUUU [RyhB],binding,[1],no binding
same,binding,[2],binds
